This is an account of results in US20260116991A1 (HAINAN SIMCERE ZAIMING PHARMACEUTICAL, published 2026).

The target of test [1] is T1, GPC3 endogenously expressed on HepG2 cells (UniProt P51654 25-554).
T1 construct: whole, on cells
Briefly: FACS on HepG2 cells.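 Note: flow cytometric binding of chimeric antibodies to cells, read as mean fluorescence intensity, EC50 obtained by curve fitting of the MFI data.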

The target in test [2] is T2, human GPC3-His protein (human, UniProt P51654 25-559).
T2 construct: Bought protein; also called human GPC3 protein; not shown: His tag
In words: ELISA, coated human GPC3, antibody 0.001 nM. (In general: ELISA stands for enzyme-linked immunosorbent assay.)

Test [3] concerns the target T2, human GPC3-His protein. In words: ELISA, coated human GPC3, antibody 10 nM.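 Note: plate coated with antigen at 1 µg/mL, antibodies bound 2 h at 37 °C, detected via HRP-conjugated secondary antibody and TMB substrate, absorbance read after acid stop.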
Protocol: (§1) The specific method is described as follows: The antigen protein was diluted with PBS to a final concentration of 1 μg/mL, and the diluent was added to a 96-well ELISA plate at 50 μL/well. The plate was sealed with a plastic film and incubated at 4° C. overnight, washed twice with PBS the next day, and a blocking solution [PBS+2% (w/w) BSA] was added for blocking at room temperature for 2 h. […] After incubation at 37° C. for 2 h, the plate was washed 3 times with PBS. A horseradish peroxidase (HRP)-labeled secondary antibody (purchased from Merck, Cat. No. AP113P) was added for incubation at 37° C. for 1 h, and the plate was washed 5 times with PBS. A TMB substrate was added at 50 μL/well for incubation at room temperature for 10 min, then a stop solution (1.0M HCl) was added at 50 μL/well. An ELISA plate reader (Multimode Plate Reader, EnSight, purchased from Perkin Elmer) was used to read OD_{450 nm} values, with results as shown in Table 4 to Table 6, FIG. 1A, FIG. 1B, and FIG. 1C.
The target in test [4] is T2, human GPC3-His protein. Briefly: ELISA, coated human GPC3, antibody 0.0001 nM.
Test [5] concerns the target T2, human GPC3-His protein. In words: ELISA, coated human GPC3, antibody 1 nM.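 Note: antigen coated at 1 µg/mL on 96-well plates, antibody bound for 2 h at 37 °C, detected with HRP-labeled secondary antibody and TMB, absorbance read at 450 nm.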
Protocol: as §1
Test [6] has as its target T3, human GPC3 on CHO-K1-human GPC3 cells (clone CHOK1-hGPC3.2B5) (human, UniProt P51654 25-554).
T3 construct: whole, on cells; Stably transfected CHO-K1 clone 2B5
Briefly: FACS on CHOK1-hGPC3.2B5 cells.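 Note: flow cytometry binding of chimeric antibodies to the cells, read out as mean fluorescence intensity, with the half-maximal concentration derived by curve fitting.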

Test [7] concerns the target T2, human GPC3-His protein. Briefly: ELISA, coated human GPC3, antibody 0.1 nM.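 Note: antigen coated on 96-well plates at 1 µg/mL, antibody bound 2 h at 37 °C, detected with HRP-labeled secondary antibody and TMB substrate, acid-stopped.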
In test [8] the target is T2, human GPC3-His protein. In words: ELISA, coated human GPC3, antibody 0.01 nM.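 Note: Plate-bound antigen coated at 1 µg/mL, antibody incubated 2 h at 37 °C, binding detected by HRP-conjugated secondary antibody with TMB substrate, read as absorbance at 450 nm.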
Protocol: as §1
Test [9] concerns the target T2, human GPC3-His protein. In words: ELISA, coated human GPC3, antibody 100 nM.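 Note: antibodies bound to antigen-coated 96-well plates (1 µg/mL), 2 h at 37 °C, detected with HRP-labelled secondary antibody and TMB substrate, absorbance read at 450 nm.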

B1: F1.145.22 human-murine chimeric antibody (antibody, human IgG1, kappa, V domains shown)
VH: QVQLQQSGTDLARPGASVKLSCKASGYTFTSFGISWVKQRTGQGLEWIGEIYPRSGSPYYNEKFTGKATLTADKSSSTAYMELRSLTSEDSAVYFCAKDFGSSYVFDYWGQGTALTVSS
VL: DIQMTQSPASLSASVGETVTITCRASENIYSYLTWYQQKQGKSPQLLVYNAKTLAEGVPSRFSGSGSGTQFSLKINSLQPEDFGTYYCQHHYGTPPTFGTGTKLDLKR
One may read the EC50 as the concentration giving half of the maximal effect. As for B1, the results for the EC50 in [1] and in test [6] were 0.67 nM and 1.18 nM, respectively. Further, the “Max MFI” value in [1] stood at 2160 MFI; in test [6], 9700 MFI. Moreover, the OD450 nm is 0.12 OD450 in test [2]; 2.35 OD450 in test [3]; 0.09 OD450 in [4]; 1.95 OD450 in test [5]; 0.94 OD450 in test [7]; 0.22 OD450 in [8]. This molecule also registered an OD450 nm in test [9] of 2.53 OD450.

B2: F1.9.19 human-murine chimeric antibody (antibody, human IgG1, kappa, V domains shown)
VH: DVQLQESGPGLVKPSQSLSLTCSVTGYSITSGYYWNWIRQFPGNRLEWMAYISYDGINNYNPSLKNRISIARDTSTNQFFLKLNSVTSEDTATYYCATTTEVALFDHWGQGTTLTVSS
VL: DVLLTQTPLSLPVSLGDQASISCRSSQNIVHGNGNTYLEWFLQKPGQSPKLLIYKVSNRFSGVPDRFSGSGSGTDFTLKISRVEAEDLGLYYCFQASHVPWTFGGGTKLEIKR
For the molecule B2, the half-maximal effective concentration (EC50) in test [1] was found to be 1.12 nM; in test [6] it was 1.76 nM. In addition, the “Max MFI” value in test [1] was 3780 MFI; in test [6], 2700 MFI. Moreover, the OD450 nm in test [2] is 0.11 OD450; in [3], 1.85 OD450; in test [4], 0.1 OD450; in test [5] it was 1.6 OD450; in test [7] it was 0.58 OD450; in test [8], 0.16 OD450. The OD450 nm in [9] came to 1.88 OD450.

B3: F1.111.11 human-murine chimeric antibody (antibody, human IgG1, kappa, V domains shown)
VH: EVQLQQSGPELVKPGASVKISCKASGYTFTDYYMNWVKQSHGKSLEWIGDIYPNNGDTTYNQRFKGKATLTVDKSSSTAYMELRSLASEDSAVYYCACPYNNPFGYWGQGTLVTVSA
VL: DVVMTQTPLSLPVSLGDQASISCRSSQSLVHSNGNTYLHWYLQKPGQSPKLLIYKVSNRFSGVPDRFSGSGSGTDFTLKISRVEAEDLGVYFCSQSTHVPWTFGGGTKLEIKR
On to B3, for which the EC50 was determined as 1.13 nM in test [1] and 1.08 nM in test [6]. Moreover, the “Max MFI” value in test [1] is 1880 MFI; in test [6], 9230 MFI. The OD450 nm in test [2] is 0.14 OD450; in test [3] it was 2.46 OD450; in test [4], 0.1 OD450; in test [5] it was 2.41 OD450; in test [7] it was 1.61 OD450; in test [8] it was 0.41 OD450. In [9], the OD450 nm amounted to 2.7 OD450.

B4: F1.115.8 human-murine chimeric antibody (antibody, human IgG1, kappa, V domains shown)
VH: EVQLQQSGPELVKPGASVKMSCKASGYTFTEYYMHWVKQSHGKSLEWIGYIYPNNGGNGYNQKFKGKATLTVDKSSSTAYMGLRSLTSEDSAVYYCVRGYYSNWYFDVWGTGTTVTVSS
VL: DVLMTQTPLSLPVSLGDQASISCRSSQSIVHSNGKTYLEWYLQKPGQSPKLLIYKVSNRFSGVPDRFSGSGSGTDFTLKISRVEAEDLGVYYCFQGSHVPFTFGSGTKLEIKR
Turning to B4, the EC50 in test [1] is 0.18 nM; in test [6], 0.33 nM. In addition, the “Max MFI” value came out at 2460 MFI in [1] and 9980 MFI in [6]. For the same molecule, the OD450 nm was 0.11 OD450 in [2]; 1.9 OD450 in test [3]; 0.09 OD450 in test [4]; 1.83 OD450 in [5]; 0.83 OD450 in [7]; 0.2 OD450 in test [8]. In test [9], this molecule yielded an OD450 nm of 2.01 OD450.

B5: F1.62.9 human-murine chimeric antibody (antibody, human IgG1, kappa, V domains shown)
VH: QVQLQQSDAELVKPGASVKISCKVSGYIFTDHTIHWMKQRPEQGLEWIGYIYPRDGSIKYNENFKGKATLTADKSSSATYMQLNSLTSEDSAVYFCARPIYYDYAYYFDYWGQGTTLTVSS
VL: DVVMTQSPLSLPVSLGDQASISCRSRQSLVHSNGNTYLHWYLQKPGQSPKVLIYKVSNRFSGVPDRFSGSGSGTDFTLKISRVEAEDLGVYFCSQSTHVPYTFGGGTKLEIKR
As to B5, the concentration giving a half-maximal response (EC50) was 1.32 nM in test [1] and 3.49 nM in test [6]. Further, the results for the “Max MFI” value in test [1] and in test [6] were 3250 MFI and 2160 MFI, respectively. In addition, the OD450 nm in [2] stood at 0.09 OD450; in test [3], 0.96 OD450; in test [4], 0.11 OD450; in test [5], 0.63 OD450; in test [7], 0.2 OD450; in test [8], 0.1 OD450. In test [9], this molecule had an OD450 nm of 1.09 OD450.
